# Source: patent US8936785 (ESBATECH AN ALCON BIOMEDICAL RESEARCH UNIT, dated 2015)
# Residue numbers refer to the chain shown, from its start.
# B1: ESBA105 (scFv)
# scFv: DIVMTQSPSSLSASVGDRVTLTCTASQSVSNDVVWYQQRPGKAPKLLIYSAFNRYTGVPSRFSGRGYGTDFTLTISSLQPEDVAVYYCQQDYNSPRTFGQGTKLEVKRGGGGSGGGGSGGGGSSGGGSQVQLVQSGAEVKKPGASVKVSCTASGYTFTHYGMNWVRQAPGKGLEWMGWINTYTGEPTYADKFKDRFTFSLETSASTVYMELTSLTSDDTAVYYCARERGDAMDYWGQGTLVTVSS
# B2: ESBA105-H_F68A (scFv)
# scFv: B1 scFv with F196A
# B3: ESBA105-QC15.2 (scFv)
# scFv: B1 scFv with K171R, F196I
# Experiments:
# [1] = target: T1, TNFα (tumour necrosis factor alpha) (UniProt P01375 77-233, limits assumed); test: cell-based or functional assay
# [2] = target: T1, TNFα (tumour necrosis factor alpha); test: cell-based or functional assay; remark: listed apart in the source
# T1 sequence (P01375 77-233 limits assumed): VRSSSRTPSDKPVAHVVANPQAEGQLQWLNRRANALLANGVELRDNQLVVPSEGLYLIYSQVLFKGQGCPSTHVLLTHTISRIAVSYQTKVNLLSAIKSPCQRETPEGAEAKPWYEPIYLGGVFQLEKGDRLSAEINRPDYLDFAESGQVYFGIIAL
Binder,"Relative potency: EC50X/EC50ESBA105, KYM-1 cells [1] [ratio EC50X/EC50ESBA105]","Relative potency: EC50X/EC50ESBA105, L929 cells [1] [ratio EC50X/EC50ESBA105]","EC50 (read off the curve), L929 assay, ESBA105 stored 8 weeks at 37° C. (triangles, dashed line) [2] [ng/mL]"
B1,1,1,~10
B2,,1.14,
B3,1.5,1.37,
